Assay results as given in patent US20220267415A1 (University of Texas, published 2022).
Where “and” joins values, the source holds several entries; their conditions need not be identical. Identical values can stand only once. Like-named read-outs stand apart in the source and are kept apart here.

Experiments:
[1] = molecular target: T1, recombinant SARS-CoV-2 Receptor Binding Domain (RBD) with a his tag (ATUM, Cat. 65639.1.a) (SARS-CoV-2, UniProt P0DTC2 319-541); experiment: ELISA on coated RBD-his
[2] = molecular target: T2, SARS-CoV-2 spike protein, wild type, on live virus (SARS-CoV-2-mNG / USA-WA1/2020) (SARS-CoV-2, UniProt P0DTC2 13-1273); experiment: cell-based or functional assay
[3] = molecular target: T1, recombinant SARS-CoV-2 Receptor Binding …
[4] = molecular target: T3, recombinant Spike protein (Sino Biologicals Cat #40589-V08B1) (SARS-CoV-2, UniProt P0DTC2 13-1213); experiment: BLI (Octet), His-tagged S on Ni-NTA sensor, avidity
[5] = molecular target: T2, SARS-CoV-2 spike protein, wild type, on …; experiment: cell-based or functional assay; remark: listed apart in the source
[6] = molecular target: T3, recombinant Spike protein (Sino …); experiment: BLI (Octet), avidity to spike
[7] = molecular target: T3, recombinant Spike protein (Sino …); experiment: ELISA on coated recombinant spike
[8] = molecular target: T1, recombinant SARS-CoV-2 Receptor Binding …; remark: listed apart in the source

Row | Binder | EC50 [1] | EC50 (neutralization of live SARS-CoV-2-mNG) [2] | Fold change of neutralization EC50 in nM (IgM-14 against IgG-14) [2] | Fold change of neutralization EC50 in µg/ml (IgM-14 against IgG-14) [2] | EC50 (read off the curve) [3] | Kd [4] | koff [4] | kon [4] | Neutralization EC50 [5] | fold change of KD (IgM-14 against IgG-14) [6] | fold change of Kdis (IgM-14 against IgG-14) [6] | fold change of Kon (IgM-14 against IgG-14) [6] | EC50 [7] | fold change of ELISA EC50 (IgM-14 against IgG-14) [7] | EC50 (read off the curve) [8]
1 | anti-SARS-CoV2-14 IgM (lambda-VL-kappa-CL hybrid light chain) (antibody) heavy: EVQLQQSGPGLVKPSQTLSLTCAISGDSVSSNSAAWNWIRQSPSRGLEWLGRTYYRSKWYNDYAVSVKSRITINPDTSKNQFSLQLNSVTPEDTAVYYCAREEQQLVHDYYYYGMDVWGQGTMVTVSSGSASAPTLFPLVSCENSPSDTSSVAVGCLAQDFLPDSITFSWKYKNNSDISSTRGFPSVLRGGKYAATSQVLLPSKDVMQGTDEHVVCKVQHPNGNKEKNVPLPVIAELPPKVSVFVPPRDGFFGNPRKSKLICQATGFSPRQIQVSWLREGKQVGSGVTTDQVQAEAKESGPTTYKVTSTLTIKESDWLSQSMFTCRVDHRGLTFQQNASSMCVPDQDTAIRVFAIPPSFASIFLTKSTKLTCLVTDLTTYDSVTISWTRQNGEAVKTHTNISESHPNATFSAVGEASICEDDWNSGERFTCTVTHTDLPSPLKQTISRPKGVALHRPDVYLLPPAREQLNLRESATITCLVTGFSPADVFVQWMQRGQPLSPEKYVTSAPMPEPQAPGRYFAHSILTVSEEEWNTGETYTCVVAHEALPNRVTERTVDKSTGKPTLYNVSLVMSDTAGTCY VL: QAVVTQPASVSGSPGQSITISCTGTSSDIGAYNYISWYQQHPGKAPKLIIYEVSNRPSGISYRFSGSKSGNTASLTISGLQAEDEANYYCSSYAGSISFGGGTKVTVL not shown | 0.7 nM | 0.01 µg/ml and 0.011 nM | 236 fold | 39 fold | ~0.7 nM | 0.102 nM | 0.00034 s⁻¹ | 3.35e+06 M⁻¹ s⁻¹ | 0.015 µg/mL | 13.6 fold | 0.26 fold | 3.59 fold | 0.046 nM | 135 fold | 
2 | anti-SARS-CoV2-09 IgM (antibody) VH: QVQLHQWGAGLLKPSETLSRTCAVYGGSFSGYYWTWIRQAPGKGLEWIGEINHGGSTRYNPSLESRVSISVDTSKKQFSLELRSVTAADTAIYYCARGYDTNWYGDGYNWFDPWDRGTLVTVSS VL: QSALTQDPSVSVALGQTVRITCQGDSLRGSFASWYRQKPGQAPVLVIFGINNRPSGVPDRFSGSSSGNTASLTITGAQAEDEADYYCNSRESNSNRILFGGGTKVTVL not shown | 0.3 nM |  |  |  |  |  |  |  |  |  |  |  |  |  | ~0.4 nM
